This passage reports Kd results from patent US20210198650A1 (NIBEC, published 2021).

B1: GRS-DP polypeptide (GRS 531-600 aa) (peptide)
peptide: MYTVFEHTFHVREGDEQRTFFSFPAVVAPFKCSVLPLSQNQEFMPFVKELSEALTRHGVSHKVDDSSGSI
notes: Linear truncated GRS fragment; also called GRS-DP peptide
B2: GRS-DP-A cyclic (peptide)
peptide: CYTVFEHTFHVREGDEQRTFFSFPC
modifications: cyclic form: "monosulfide linkage" formed between the cysteine residues at the opposite termini (Cys 1 and Cys 25)
notes: Cyclised by spontaneous reaction at pH 8; 3.083 kDa; also called GRS-DP-A cyclic variant

In this assay the target is T1, cadherin6 (CDH6)-fc fusion protein (UniProt P55285 54-615, limits assumed).
T1 construct: Immobilised on a carboxymethyl dextran SPR chip; also called K-cadherin
T1 sequence (looked up): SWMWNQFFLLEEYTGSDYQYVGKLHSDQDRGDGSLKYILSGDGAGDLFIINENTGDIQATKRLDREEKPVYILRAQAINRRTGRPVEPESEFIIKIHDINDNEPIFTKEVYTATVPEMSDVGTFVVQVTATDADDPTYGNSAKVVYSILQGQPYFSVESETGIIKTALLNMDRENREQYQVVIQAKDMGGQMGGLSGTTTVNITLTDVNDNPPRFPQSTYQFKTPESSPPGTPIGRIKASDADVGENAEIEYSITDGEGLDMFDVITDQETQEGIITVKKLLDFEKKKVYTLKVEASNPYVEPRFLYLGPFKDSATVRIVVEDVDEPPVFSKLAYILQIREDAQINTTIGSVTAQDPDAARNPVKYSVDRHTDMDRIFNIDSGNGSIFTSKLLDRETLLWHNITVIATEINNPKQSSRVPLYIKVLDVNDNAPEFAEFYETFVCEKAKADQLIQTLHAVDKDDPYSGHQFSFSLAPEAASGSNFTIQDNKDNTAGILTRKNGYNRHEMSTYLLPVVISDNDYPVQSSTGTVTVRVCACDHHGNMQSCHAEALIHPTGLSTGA
As to the kind of experiment: SPR, CDH6-Fc immobilised on carboxymethyl dextran chip, peptide injected. On the procedure:
Comparison was made of the affinity of the peptides of the present invention for CDH6. The binding of GRS and GRS-derived peptides to cadherin6 (CDH6)-fc fusion protein was analyzed by surface plasmon resonance (SPR) using SR7500DC, Reichert Analytical Instrument (Depew NY). CDH6 was immobilized on a [CMDH chip] carboxymethyl dextran sensor chip via a free carboxyl group on the surface thereof, followed by injecting 0.1M 1-ethyl-3-(3-dimethylaminopropyl) carbodiimide hydrochloride and 0.05M N-hydroxysuccinimide at a flow speed of 5 μL/min to give an activated succinimide ester-modified surface. Various concentrations of GRS and GRS-derived peptides were injected at a flow speed of 30 μL/min into phosphate-based saline, after which a mobile-phase buffer was injected at the same flow speed to determine a dissociation rate. Data was analyzed using Software Scrubber 2.0 (Biological Software, Australia).
For the molecule B1, the Kd was 83.9 nM.

On to MYTVFEHTFHVREGDEQRTFFSFPA (Linear 25-mer, 3.079 kDa) [GRS-DP-A linear (GRS 531-555 aa)], for which the Kd is 61.2 nM. In turn, B2 came in with a dissociation constant (Kd) of 51.3 nM.
